Laboratory results from US20260116928A1, “COMPOSITIONS AND PARTICLES FOR PAYLOAD DELIVERY” (Thornhill Therapeutics, Inc., priority 2019, published 2026).

Test system: pancreatin
Test: Pancreatin assay (stability of SEQ ID NO: 3 and exenatide formulations)
Conditions: after 120 minutes of incubation with pancreatin; FIG. 11

B1: SEQ ID NO: 3: Cholix carrier protein having the sequence of SEQ ID NO: 3 (protein)
chain: MVEEALNIFDECRSPCSLTPEPGKPIQSKLSIPSDVVLDEGVLYYSMTINDEQNDIKDEDKGESIITIGEFATVRATRHYVNQDAPFGVIHLDITTENGTKTYSYNRKEGEFAINWLVPIGEDSPASIKISVDELDQQRNIIEVPKLYSIDLDNQTLEQWKTQGNVSFSVTRPEHNIAISWPSVSYKAAQKEGSRHKRWAHWHTGLALCWLVPMDAIYNYITQQNCTLGDNWFGGSYETVAGTPKVITVKQGIEQKPVEQRIHFSKGSGGSGGGGSGGGGSPRRRRSSSRPVRRRRRPRVSRRRRRRGGRRRRHHHHHH
degradation of SEQ ID NO: 3 by pancreatin: completely degraded
